# T1: C11 (TEV substrate clone, 5X library)
# T1 chain: DGALY
# T2: D09 (TEV substrate clone, 5X library)
# T2 chain: MEMLR
# T3: H04 (TEV substrate clone, 5X library)
# T3 chain: MEDLM
# T4: A3 (TEVopt library clone)
# T4 chain: ALYIQG
# T5: E07 (TEV substrate clone, 5X library)
# T5 chain: ETILY
# T6: B09 (TEV substrate clone, 5X library)
# T6 chain: LEQLI
# T7: D01 (TEV substrate clone, 5X library; as in Table 5A)
# T7 chain: DVQLY
# T8: C04 (TEV substrate clone, 5X library)
# T8 chain: RRMAE
# T9: F05 (TEV substrate clone, 5X library)
# T9 chain: DRELY
# T10: B11 (TEV substrate clone, 5X library)
# T10 chain: GETVY
# T11: C6 (TEVopt library clone)
# T11 chain: QLYFQS
# T12: B07 (TEV substrate clone, 5X library)
# T12 chain: MEEVY
# T13: D11 (TEV substrate clone, 5X library)
# T13 chain: GEHVY
# T14: A05 (TEV substrate clone, 5X library)
# T14 chain: FEDLL
# T15: F04 (TEV substrate clone, 5X library)
# T15 chain: DRELY
# T16: D08 (TEV substrate clone, 5X library)
# T16 chain: LEWLK
# T17: G05 (TEV substrate clone, 5X library)
# T17 chain: LRELW
# T18: C3 (TEVopt library clone)
# T18 chain: DLYWQG
# T19: E09 (TEV substrate clone, 5X library)
# T19 chain: SEPLR
# T20: D10 (TEV substrate clone, 5X library)
# T20 chain: LYFQG
# T21: E6 (TEVopt library clone)
# T21 chain: VLYTQG
# T22: C07 (TEV substrate clone, 5X library)
# T22 chain: VEPIY
# T23: C09 (TEV substrate clone, 5X library)
# T23 chain: RELVY
# T24: H09 (TEV substrate clone, 5X library)
# T24 chain: GEALF
# T25: A4 (TEVopt library clone)
# T25 chain: VLYLQS
# T26: H03 (TEV substrate clone, 5X library)
# T26 chain: ARQIR
# T27: D05 (TEV substrate clone, 5X library)
# T27 chain: GEAGV
# T28: G06 (TEV substrate clone, 5X library)
# T28 chain: SEDLW
# T29: F02 (TEV substrate clone, 5X library)
# T29 chain: EEYLW
# T30: G02 (TEV substrate clone, 5X library)
# T30 chain: GEAGF
# T31: C4 (TEVopt library clone)
# T31 chain: ELYWQG
# T32: F09 (TEV substrate clone, 5X library)
# T32 chain: GEDLL
# T33: G03 (TEV substrate clone, 5X library)
# T33 chain: GDMGY
# Assays:
# [1] = target: Control (TEV substrate ENLYFQS)
# [2] = target: T1, C11 (TEV substrate clone, 5X library)
# [3] = target: T2, D09 (TEV substrate clone, 5X library)
# [4] = target: T3, H04 (TEV substrate clone, 5X library)
# [5] = target: T4, A3 (TEVopt library clone)
# [6] = target: T5, E07 (TEV substrate clone, 5X library)
# [7] = target: T6, B09 (TEV substrate clone, 5X library)
# [8] = target: T7, D01 (TEV substrate clone, 5X library; …)
# [9] = target: T8, C04 (TEV substrate clone, 5X library)
# [10] = target: T9, F05 (TEV substrate clone, 5X library)
# [11] = target: T10, B11 (TEV substrate clone, 5X library)
# [12] = target: T11, C6 (TEVopt library clone)
# [13] = target: T12, B07 (TEV substrate clone, 5X library)
# [14] = target: T13, D11 (TEV substrate clone, 5X library)
# [15] = target: T14, A05 (TEV substrate clone, 5X library)
# [16] = target: T15, F04 (TEV substrate clone, 5X library)
# [17] = target: T16, D08 (TEV substrate clone, 5X library)
# [18] = target: T17, G05 (TEV substrate clone, 5X library)
# [19] = target: T18, C3 (TEVopt library clone)
# [20] = target: T19, E09 (TEV substrate clone, 5X library)
# [21] = target: T20, D10 (TEV substrate clone, 5X library)
# [22] = target: T21, E6 (TEVopt library clone)
# [23] = target: D03 (TEV substrate clone, 5X library)
# [24] = target: T22, C07 (TEV substrate clone, 5X library)
# [25] = target: T23, C09 (TEV substrate clone, 5X library)
# [26] = target: T24, H09 (TEV substrate clone, 5X library)
# [27] = target: T25, A4 (TEVopt library clone)
# [28] = target: T26, H03 (TEV substrate clone, 5X library)
# [29] = target: T27, D05 (TEV substrate clone, 5X library)
# [30] = target: T28, G06 (TEV substrate clone, 5X library)
# [31] = target: T29, F02 (TEV substrate clone, 5X library)
# [32] = target: T30, G02 (TEV substrate clone, 5X library)
# [33] = target: T31, C4 (TEVopt library clone)
# [34] = target: T32, F09 (TEV substrate clone, 5X library)
# [35] = target: T33, G03 (TEV substrate clone, 5X library)
# Throughout, for % Conversion: test concentration or dose not given here.
# Throughout, for Conversion (group heading of the table): test concentration or dose not given here.
# Throughout, for Fl (fluorescence without TEV): unit not given here.
# Throughout, for Fl after TEV: unit not given here.
protein,measurement,setting,value
tobacco etch virus protease (protein) GESLFKGPRDYNPISSTICHLTNESDGHTTSLYGIGFGPFIITNKHLFRRNNGTLLVQSLHGVFKVKNTTTLQQHLIDGRDMIIIRMPKDFPPFPQKLKFREPQREERICLVTTNFQTKSMSSMVSDTSCTFPSSDGIFWKHWIQTKDGQCGSPLVSTRDGFIVGIHSASNFTNTNNYFTSVPKNFMELLTNQEAQQWVSGWRLNADSVLWGGHKVFMSKPEEPFQPVKEATQLMNELVYSQ,% Conversion (fraction (head says % Conversion)),[1],0.664
same,Conversion (group heading of the table),[2],50%-60% Conversion
same,Conversion (group heading of the table),[3],60%-90% Conversion
same,Conversion (group heading of the table),[4],50%-60% Conversion
same,% Conversion (fraction (head says % Conversion)),[5],0.922
same,Conversion (group heading of the table),[6],50%-60% Conversion
same,% Conversion (fraction (head says % Conversion)),[7],0.76
same,Conversion (group heading of the table),[7],60%-90% Conversion
same,Fl (fluorescence without TEV),[7],3250
same,Fl after TEV,[7],980
same,Conversion (group heading of the table),[8],60%-90% Conversion
same,Conversion (group heading of the table),[9],60%-90% Conversion
same,Conversion (group heading of the table),[10],50%-60% Conversion
same,Conversion (group heading of the table),[11],30%-50% conversion
same,% Conversion (fraction (head says % Conversion)),[12],0.618
same,Conversion (group heading of the table),[13],50%-60% Conversion
same,Conversion (group heading of the table),[14],60%-90% Conversion
same,Conversion (group heading of the table),[15],50%-60% Conversion
same,% Conversion (fraction (head says % Conversion)),[16],0.79
same,Conversion (group heading of the table),[16],60%-90% Conversion
same,Fl (fluorescence without TEV),[16],5910
same,Fl after TEV,[16],1420
same,Conversion (group heading of the table),[17],60%-90% Conversion
same,Conversion (group heading of the table),[18],60%-90% Conversion
same,% Conversion (fraction (head says % Conversion)),[19],0.734
same,Conversion (group heading of the table),[20],60%-90% Conversion
same,Conversion (group heading of the table),[21],60%-90% Conversion
same,% Conversion (fraction (head says % Conversion)),[22],0.549
same,Conversion (group heading of the table),[23],60%-90% Conversion
same,Conversion (group heading of the table),[24],30%-50% conversion
same,Conversion (group heading of the table),[25],30%-50% conversion
same,Conversion (group heading of the table),[26],60%-90% Conversion
same,% Conversion (fraction (head says % Conversion)),[27],0.854
same,Conversion (group heading of the table),[28],30%-50% conversion
same,Conversion (group heading of the table),[29],30%-50% conversion
same,Conversion (group heading of the table),[30],60%-90% Conversion
same,Conversion (group heading of the table),[31],30%-50% conversion
same,Conversion (group heading of the table),[32],30%-50% conversion
same,% Conversion (fraction (head says % Conversion)),[33],0.689
same,% Conversion (fraction (head says % Conversion)),[34],0.71
same,Conversion (group heading of the table),[34],60%-90% Conversion
same,Fl (fluorescence without TEV),[34],4810
same,Fl after TEV,[34],1550
same,Conversion (group heading of the table),[35],30%-50% conversion

# Source: patent US20070065878A1
